Blank lines part the entries; values can stand above or below the molecule they belong to.
Assays:
[1] = molecular target: canine FcRn with a poly-His tag / canine B2M heterodimer complex (canine); experiment: SPR (Biacore T200), pH 6.0; biotinylated FcRn/B2M immobilised, Fc as analyte
[2] = molecular target: T1, canine IL4 (Sino Biological Inc, Cat #70021-DNAE-5) (canine, UniProt O77762 25-132); experiment: cell-based or functional assay
T1 sequence (looked up): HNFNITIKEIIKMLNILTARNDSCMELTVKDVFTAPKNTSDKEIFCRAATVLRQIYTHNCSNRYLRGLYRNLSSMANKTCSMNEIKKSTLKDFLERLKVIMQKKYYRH

koff [1]: 0.241 s⁻¹
Molecule: variant canine IgG-B Fc polypeptide L(23)S

TF1 cell proliferation assay (CellTiter-Glo luminescence), IC50 by 4 parameter logistic fit [2]: 2 nM
B1: canine IL4RECD-IL13RECD-IgGB Fc (Fc fusion)
chain: SGSVKVLHEPSCFSDYISTSVCQWKMDHPTNCSAELRLSYQLDFMGSENHTCVPENREDSVCVCSMPIDDAVEADVYQLDLWAGQQLLWSGSFQPSKHVKPRTPGNLTVHPNISHTWLLMWTNPYPTENHLHSELTYMVNVSNDNDPEDFKVYNVTYMGPTLRLAASTLKSGASYSARVRAWAQTYNSTWSDWSPSTTWLNYYEPGGGSGTETQPPVTNLSVSVENLCTVIWTWDPPEGASPNCTLRYFSHFDNKQDKKIAPETHRSKEVPLNERICLQVGSQCSTNESDNPSILVEKCTPPPEGDPESAVTELQCVWHNLSYMKCTWLPGRNTSPDTNYTLYYWHSSLGKILQCEDIYREGQHIGCSFALTNLKDSSFEQHSVQIVVKDNAGKIRPSFNIVPLTSHVKPDPPHIKRLFFQNGNLYVQWKNPQNFYSRCLSYQVEVNNSQTETNDIFYVEEAKCQNSEFEGNLEGTICFMVPGVLPDTLNTVRIRVRTNKLCYEDDKLWSNWSQAMSIGENTDPTPKRENGRVPRPPDCPKCPAPEMLGGPSVFIFPPKPKDTLLIARTPEVTCVVVDLDPEDPEVQISWFVDGKQMQTAKTQPREEQFNGTYRVVSVLPIGHQDWLKGKQFTCKVNNKALPSPIERTISKARGQAHQPSVYVLPPSREELSKNTVSLTCLIKDFFPPDIDVEWQSNGQQEPESKYRTTPPQLDEDGSYFLYSKLSVDKSRWQRGDTFICAVMHEALHNHYTQESLSHSPGK
modifications: Biotinylated when captured on the tips in the sequential binding experiment; secreted from CHO cells, so glycosylated.

— patent US20240270819A1 (ELANCO US, published 2024)
